For this assay, the target named is penicillin-binding protein 2a (S. aureus (endogenous in strain USA300)). Nature of the assay: cross-linking + native gel or EMSA. (A gel shift assay detects complexes by their altered migration in electrophoresis.)

By stoichiometry N is commonly meant the number of molecules, sites or subunits per partner or assembly. As for “penicillin-binding protein 2a (natural protein)”, the stoichiometry N stood at 3.

Source of the values: paper PMC11963547.
